# T1: 6xHis-tagged SA2 (1–1051 aa), baculovirus-expressed (human, UniProt Q8N3U4 1-1051)
# T1 construct: source: Sf21 insect cells, baculovirus, in cell extract; not shown: 6xHis, N-terminal, kept
# T1 sequence (looked up): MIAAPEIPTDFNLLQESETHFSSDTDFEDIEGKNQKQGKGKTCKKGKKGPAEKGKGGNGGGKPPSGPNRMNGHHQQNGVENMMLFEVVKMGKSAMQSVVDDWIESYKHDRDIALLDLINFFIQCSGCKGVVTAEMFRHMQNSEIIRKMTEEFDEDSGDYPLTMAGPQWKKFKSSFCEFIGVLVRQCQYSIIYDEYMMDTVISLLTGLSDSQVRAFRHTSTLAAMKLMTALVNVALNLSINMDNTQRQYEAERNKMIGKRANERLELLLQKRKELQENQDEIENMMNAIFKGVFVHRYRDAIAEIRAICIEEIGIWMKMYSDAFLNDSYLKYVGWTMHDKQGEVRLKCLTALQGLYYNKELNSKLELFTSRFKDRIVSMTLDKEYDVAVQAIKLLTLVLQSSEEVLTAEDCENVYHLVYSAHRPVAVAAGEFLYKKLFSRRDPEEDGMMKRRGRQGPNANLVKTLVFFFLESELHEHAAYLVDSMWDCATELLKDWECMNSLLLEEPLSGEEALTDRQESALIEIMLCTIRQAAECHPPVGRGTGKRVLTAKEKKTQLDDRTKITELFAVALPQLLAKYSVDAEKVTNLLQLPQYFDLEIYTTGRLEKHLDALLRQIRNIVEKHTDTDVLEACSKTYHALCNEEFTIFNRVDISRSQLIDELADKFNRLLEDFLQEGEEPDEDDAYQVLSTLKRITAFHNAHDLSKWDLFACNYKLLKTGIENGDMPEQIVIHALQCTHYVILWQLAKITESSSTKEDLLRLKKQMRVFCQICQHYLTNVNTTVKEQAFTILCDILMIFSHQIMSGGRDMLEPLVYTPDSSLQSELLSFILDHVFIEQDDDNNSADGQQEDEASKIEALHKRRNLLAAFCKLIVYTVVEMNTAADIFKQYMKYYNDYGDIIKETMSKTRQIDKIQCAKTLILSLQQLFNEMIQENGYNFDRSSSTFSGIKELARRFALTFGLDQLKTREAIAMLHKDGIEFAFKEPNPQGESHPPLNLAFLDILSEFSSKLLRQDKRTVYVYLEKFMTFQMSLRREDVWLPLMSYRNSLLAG
# B1: Flag-tagged Rad21 (171–450 aa), baculovirus-expressed (domain or fragment, human, UniProt O60216 171-450, looked up)
# chain: MREGSAFEDDDMLVSTTTSNLLLESEQSTSNLNEKINHLEYEDQYKDDNFGEGNDGGILDDKLISNNDGGIFDDPPALSEAGVMLPEQPAHDDMDEDDNVSMGGPDSPDSVDPVEPMPTMTDQTTLVPNEEEAFALEPIDITVKETKAKRKRKLIVDSVKELDSKTIRAQLSDYSDIVTTLDLAPPTKKLMMWKETGGVEKLFSLPAQPLWNNRLLKLFTRCLTPLVPEDLRKRRKGGEADNLDEFLKEFENPEVPREDQQQQHQQRDVIDEPIIEEPSR
# notes: also called Rad21 middle region; source: Sf21 insect cells, baculovirus, in cell extract
# Molecular target: T1, 6xHis-tagged SA2 (1–1051 aa), …
# Assay: SEC; complex co-expressed in Sf21 cells and purified by Ni-NTA and anion exchange, then Superose 6 gel filtration; 25 mM Tris-HCl pH 7.5, 200 mM NaCl, 5% glycerol
# Conditions: both partners purified
binder,measurement,value
B1,binding result,binds

# — publication PMC3709894, “Characterization of the Interaction between the Cohesin Subunits Rad21 and SA1/2” (PLoS ONE, 2013)
